# Reference: doi:10.1101/2021.01.27.428421
# Target: tdPCP-GFP-VPR (PP7 (from the protein's name) | not stated)
# Experiment: fluorescence intensity at the reporter gene array in cells
substance,measurement,value
tdPCP-GFP-VPR,fold signal at the reporter array against tdPCP-GFP-VP16,1.9 fold
